Data on one molecule can be found in patent US20150030697A1.

The term Ki denotes a dissociation constant, usually derived from enzyme kinetics or from competition with a known ligand. As usually defined, the EC50 is the midpoint of the concentration-response curve. The low end stands for greater potency, the high end for weaker potency.

Assay [1] addresses Guanylate cyclase C (GC-C) (human), P25092.
Assay [2] has the same target. As to the kind of experiment: cell-based or functional assay.

Guanylate cyclase C (GC-C) (human), P25092, sequence (P25092 24-1073): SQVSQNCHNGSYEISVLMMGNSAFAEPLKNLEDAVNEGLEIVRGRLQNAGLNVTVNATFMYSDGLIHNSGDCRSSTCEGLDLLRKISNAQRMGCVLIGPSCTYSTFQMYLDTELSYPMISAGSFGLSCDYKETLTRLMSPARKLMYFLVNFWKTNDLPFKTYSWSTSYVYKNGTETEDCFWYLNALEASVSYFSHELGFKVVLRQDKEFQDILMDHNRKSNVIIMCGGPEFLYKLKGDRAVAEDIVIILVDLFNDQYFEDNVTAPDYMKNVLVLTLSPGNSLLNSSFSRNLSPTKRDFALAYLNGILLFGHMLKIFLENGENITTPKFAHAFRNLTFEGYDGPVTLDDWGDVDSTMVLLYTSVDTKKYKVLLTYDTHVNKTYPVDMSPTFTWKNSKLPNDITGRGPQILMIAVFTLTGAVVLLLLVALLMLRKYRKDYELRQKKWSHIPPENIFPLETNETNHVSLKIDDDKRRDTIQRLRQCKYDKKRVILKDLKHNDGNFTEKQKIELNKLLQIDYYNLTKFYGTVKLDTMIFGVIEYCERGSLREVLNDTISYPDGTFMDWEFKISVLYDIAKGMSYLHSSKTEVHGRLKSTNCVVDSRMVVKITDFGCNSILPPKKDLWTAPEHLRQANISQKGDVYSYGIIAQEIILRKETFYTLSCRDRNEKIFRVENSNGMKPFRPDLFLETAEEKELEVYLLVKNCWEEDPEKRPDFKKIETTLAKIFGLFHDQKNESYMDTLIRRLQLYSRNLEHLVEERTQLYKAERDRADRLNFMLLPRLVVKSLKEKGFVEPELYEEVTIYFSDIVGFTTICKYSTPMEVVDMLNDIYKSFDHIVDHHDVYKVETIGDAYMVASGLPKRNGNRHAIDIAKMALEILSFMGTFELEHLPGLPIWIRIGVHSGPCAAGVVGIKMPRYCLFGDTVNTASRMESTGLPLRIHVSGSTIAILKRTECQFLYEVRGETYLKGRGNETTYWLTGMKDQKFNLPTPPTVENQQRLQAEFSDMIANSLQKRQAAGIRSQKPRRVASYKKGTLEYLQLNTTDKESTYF

As for CCELCCNPACTGCY (modifications not checked) [Peptide 3], the Ki in assay [1] worked out at 1.2 nM. In assay [2], this molecule had a 50% effective concentration (EC50) at pH 5 (nM), cGMP response of T84 cells of 16 nM.
